Where only a bound is given, the exact number is not on record here.

The results in this text go back to PMC4428071, “Structural basis for epitope masking and strain specificity of a conserved epitope in an intrinsically disordered malaria vaccine candidate” (Scientific Reports, 2015).

The target in assay [1] is mouse monoclonal antibody 6D8 (mouse). Kind of assay: SPR. (In general: In SPR one partner is held on a chip, and binding of the other changes the refractive index at the surface.)
For another assay, the target named is 6D8 scFv (mouse). The assay is described as follows: ITC; Microcal ITC-200; MSP2 or peptide titrated into 6D8 scFv or 6D8 IgG. (In general: Isothermal titration calorimetry measures the heat released or taken up as one component is titrated into another.)
6D8 scFv (mouse), sequence (heavy, as listed by the source, chain 1 of 2): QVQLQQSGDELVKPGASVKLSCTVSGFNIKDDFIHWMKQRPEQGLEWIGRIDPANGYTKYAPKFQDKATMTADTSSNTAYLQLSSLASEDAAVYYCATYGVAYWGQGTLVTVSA
6D8 scFv (mouse), sequence (light, as listed by the source, chain 2 of 2): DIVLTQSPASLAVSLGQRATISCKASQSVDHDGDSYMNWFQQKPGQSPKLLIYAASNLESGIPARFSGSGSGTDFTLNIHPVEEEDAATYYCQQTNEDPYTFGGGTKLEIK

mouse monoclonal antibody 6D8 (mouse), sequence (heavy, as listed by the source, chain 1 of 2): as the sequence (heavy, as listed by the source, chain 1 of 2) above
mouse monoclonal antibody 6D8 (mouse), sequence (light, as listed by the source, chain 2 of 2): as the sequence (light, as listed by the source, chain 2 of 2) above

As for Ac-AYNMSIRRS-NH2 [MSP2_(15-23)], in assay [1], the Kd (in general, the equilibrium constant for the complex coming apart) amounted to 34 nM.
With Ac-NAYNMSIRR-NH2 [MSP2_(14-22)], the figures for the dissociation constant Kd (in assay [1]; with 6D8 scFv (mouse)) were 6 nM and less than 5 nM, respectively.
In assay [1], Ac-NNAYNMSIRR-NH2 [MSP2_(13-22)] returned a dissociation constant Kd of 14 nM.
As for Ac-AYNMSIRR-NH2 [MSP2_(15-22)], in assay [1], the Kd was found to be 87 nM.
In assay [1], Ac-FINNAYNMSIRRS-NH2 [MSP2_(11-23)] yielded a Kd of 6 nM. This Kd lies about 14-fold lower than the previous one.
Still for that read-out and setting: the result for Ac-NAYNMSIRRS-NH2 [MSP2_(14-23)] reads 16 nM.
